# Numbering of substitutions follows the chain as printed. Names and notes keep the numbering of the source.
# B1: 2411a revertant of heavy chain Y33V/M34L (CDR H1) (antibody, V domains shown)
# VH: QVQLVQSGAEMKKPGASVRVSCEASGYTFTDYYMHWMRQAPGQGIEWLGWIKPRYGAVNYAHKFQGRVSMTRDTSIDTAYLELINLRSDDTAIYYCARSFDSDYEWWFTYWGQGTLVSVSA
# VL: EIVLTQSPGTLSLSPGERATLSCRASYFISRDYLAWYQQRPGQAPKLLIYGTTTRASGIPDRFSGSGSGTDFTLTISRLEPEDFAVYYCQQYEFFGLGTKVEIK
# B2: 2411a revertant of light chain Q27Y (CDR L1) (antibody, V domains shown)
# VH: B1 VH with Y33V, M34L
# VL: B1 VL with Y27Q
# B3: 2411a revertant of heavy chain N53R/S54Y (CDR H2) (antibody, V domains shown)
# VH: B1 VH with Y33V, M34L, R54N, Y55S
# VL: B1 VL
# B4: 2411a revertant of heavy chain Q61H (CDR H2) (antibody, V domains shown)
# VH: B1 VH with Y33V, M34L, H62Q
# VL: B1 VL
# B5: 2411a revertant of heavy chain N52K (CDR H2) (antibody, V domains shown)
# VH: B1 VH with Y33V, M34L, K52N
# VL: B1 VL
# B6: 2411a revertant of light chain S27aF (CDR L1) (antibody, V domains shown)
# VH: B1 VH with Y33V, M34L
# VL: B1 VL with F28S
# B7: 2411a revertant of heavy chain G56A/T57V (CDR H2) (antibody, V domains shown)
# VH: B1 VH with Y33V, M34L, A57G, V58T
# VL: B1 VL
# Molecular target: 18 Env antigens
# Test: ELISA
row,Binder,mean fold change in ELISA binding titer (OD450) versus parental 2411a
1,B1,3.9 fold
2,B2,1.8 fold
3,B3,6.5 fold
4,B4,1.4 fold
5,B5,5.4 fold
6,B6,1.6 fold
7,B7,5.5 fold

# — paper PMC8020832
